Test results published in patent CN114106161A (ANYUAN MEDICINE SCIENCE AND TECH SHANGHAI LIMITED COMPANY, dated 2022).

Legend:
刺突S-鼠Fc融合蛋白 (S-mFc) = 刺突S-鼠Fc融合蛋白 (S-mFc) (SARS-CoV-2; mouse, UniProt P0DTC2 14-1213); experiment: flow cytometry, blocking of S-mFc binding to 293T-ACE2 cells
[1] = molecular target: T1, SARS-CoV-2 S1蛋白 (ACRO Biosystems) (SARS-CoV-2, UniProt P0DTC2 16-685); experiment: competition ELISA, S1 coated, competitor HRP-labelled hACE2-Fc
T1 construct: domain: S1; also called SARS-CoV-2S1抗原; 生物素化SARS-CoV-2S1

[2] = molecular target: T1, SARS-CoV-2 S1蛋白 (ACRO Biosystems); experiment: BLI, biotinylated SARS-CoV-2 S1 on SA sensor, antibody as analyte, 1:1 fit

B1: 人源化抗体hS1B-73-3 (antibody, V domains shown)
VH: EVQLVQSGAEVKKPGSSVKVSCKASGYAFTNFLIEWVREAPGQGLEWIGMINPGSGDTNYNEKFKGKATLTADKSTSTVYMELSSLRSEDTAVYFCARQLGLPGFVYWGRGTTVTVSS
VL: DIQMTQSPSSLSASVGDRVTITCKASQDINSYLTWLQQKPGKSPKTLIYRANRLVEGVPSRFSGSGSGQDFTLKISSLQPEDIATYYCLQHDEFPLTFGQGTKLEIKR
notes: also called 抗SARS-CoV-2S1 RBD人源化抗体hS1B-73-3
刺突S-鼠Fc融合蛋白 (S-mFc)
  IC50: 0.00433 µg/mL
[1]
  EC50: 0.0254 µg/mL
[2]
  Kd: 0.0207 nM
  koff: 2.22e-05 s⁻¹
  kon: 1.07e+06 M⁻¹ s⁻¹
